What was measured:
[1] = biological target: human TLR4 (hTLR4) on HEK-Blue-hTLR4 reporter cells (human) (UniProt O00206)
[2] = biological target: mouse TLR4 (mTLR4) on HEK-Blue-mTLR4 reporter cells (mouse) (UniProt Q9QUK6); conditions: for log (EC50) of NF-kB-driven SEAP secretion by HEK-Blue-mTLR4 reporter cells, 48 h, dose-response up to 2540 nM: scale: log
Chain of UniProt Q9QUK6 (Q9QUK6 26-835): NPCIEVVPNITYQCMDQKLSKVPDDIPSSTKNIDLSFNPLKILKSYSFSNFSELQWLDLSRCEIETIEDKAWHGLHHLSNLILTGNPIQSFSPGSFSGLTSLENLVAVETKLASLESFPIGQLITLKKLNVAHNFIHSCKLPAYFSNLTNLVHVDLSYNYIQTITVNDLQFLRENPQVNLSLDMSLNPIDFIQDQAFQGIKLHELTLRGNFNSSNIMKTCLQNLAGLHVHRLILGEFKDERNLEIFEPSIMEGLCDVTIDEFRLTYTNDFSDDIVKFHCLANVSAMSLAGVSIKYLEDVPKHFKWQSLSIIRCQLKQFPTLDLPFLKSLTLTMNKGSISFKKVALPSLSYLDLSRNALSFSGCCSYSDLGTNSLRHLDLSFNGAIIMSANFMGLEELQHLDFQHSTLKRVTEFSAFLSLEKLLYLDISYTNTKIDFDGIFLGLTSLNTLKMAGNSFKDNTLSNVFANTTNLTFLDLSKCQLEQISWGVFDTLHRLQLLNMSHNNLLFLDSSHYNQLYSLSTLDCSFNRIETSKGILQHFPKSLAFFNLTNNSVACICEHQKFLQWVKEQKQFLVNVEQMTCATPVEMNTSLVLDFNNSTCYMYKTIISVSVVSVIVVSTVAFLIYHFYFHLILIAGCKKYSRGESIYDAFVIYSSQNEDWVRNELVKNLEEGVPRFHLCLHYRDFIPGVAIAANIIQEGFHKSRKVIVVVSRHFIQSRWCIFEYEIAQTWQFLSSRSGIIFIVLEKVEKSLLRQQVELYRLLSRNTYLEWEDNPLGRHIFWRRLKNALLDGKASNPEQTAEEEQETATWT

Chain of UniProt O00206 (O00206 24-839): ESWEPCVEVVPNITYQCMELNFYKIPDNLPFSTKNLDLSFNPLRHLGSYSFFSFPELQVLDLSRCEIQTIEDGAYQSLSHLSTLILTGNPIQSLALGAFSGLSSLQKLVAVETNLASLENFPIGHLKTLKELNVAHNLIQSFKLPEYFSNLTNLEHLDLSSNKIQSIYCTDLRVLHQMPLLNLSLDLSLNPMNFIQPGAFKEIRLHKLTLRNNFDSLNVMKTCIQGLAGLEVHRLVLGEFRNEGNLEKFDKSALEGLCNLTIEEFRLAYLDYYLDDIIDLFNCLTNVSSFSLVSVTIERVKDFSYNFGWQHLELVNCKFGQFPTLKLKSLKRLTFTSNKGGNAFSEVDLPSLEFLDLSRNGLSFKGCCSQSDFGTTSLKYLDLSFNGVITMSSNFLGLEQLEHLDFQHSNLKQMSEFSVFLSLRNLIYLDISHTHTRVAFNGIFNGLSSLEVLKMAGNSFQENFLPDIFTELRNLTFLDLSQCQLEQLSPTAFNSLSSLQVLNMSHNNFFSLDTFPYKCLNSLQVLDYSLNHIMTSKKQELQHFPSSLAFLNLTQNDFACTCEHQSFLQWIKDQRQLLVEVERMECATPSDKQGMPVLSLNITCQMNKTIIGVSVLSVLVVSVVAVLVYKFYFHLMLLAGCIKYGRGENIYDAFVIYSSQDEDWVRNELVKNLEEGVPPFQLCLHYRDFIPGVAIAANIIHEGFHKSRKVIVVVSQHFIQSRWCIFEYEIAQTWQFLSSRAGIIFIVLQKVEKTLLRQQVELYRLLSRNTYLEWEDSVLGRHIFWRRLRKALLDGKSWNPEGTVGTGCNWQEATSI

“Fissurella latimarginata hemocyanin (FLH) (natural protein)” was tested, and the activation of HEK-Blue-hTLR4 reporter cells (SEAP), dose-response up to 2,540 nM, 48 h, LPS = 100% [1] was 25 % of LPS, the maximum activation of HEK-Blue-mTLR4 reporter cells (SEAP), dose-response up to 2540 nM, 48 h, LPS plateau = 100% [2] was 80 % of LPS and the log (EC50) of NF-kB-driven SEAP secretion by HEK-Blue-mTLR4 reporter cells, 48 h, dose-response up to 2540 nM [2] was 0.1.

For “recombinant surface immunogenic protein (rSIP) from Streptococcus agalactiae (natural protein)”, the activation of HEK-Blue-hTLR4 reporter cells (SEAP), dose-response up to 2,540 nM, 48 h, LPS = 100% [1] was 90 % of LPS, the maximum activation of HEK-Blue-mTLR4 reporter cells (SEAP), dose-response up to 2540 nM, 48 h, LPS plateau = 100% [2] was 80 % of LPS and the log (EC50) of NF-kB-driven SEAP secretion by HEK-Blue-mTLR4 reporter cells, 48 h, dose-response up to 2540 nM [2] was -1.

Source: PMC10544979
